Source: article PMC4872150
pKd: −log10 of the molar value.

Target: nucleolin (UniProt P19338)
Assay: SPR
Settings: BIAcore 3000, nucleolin on CM5 chip, 10 mM HEPES, 150 mM NaCl, 3 mM EDTA, 0.005% surfactant P20, pH 7.4, 25 °C

Sequence of UniProt P19338 (P19338 whole entry): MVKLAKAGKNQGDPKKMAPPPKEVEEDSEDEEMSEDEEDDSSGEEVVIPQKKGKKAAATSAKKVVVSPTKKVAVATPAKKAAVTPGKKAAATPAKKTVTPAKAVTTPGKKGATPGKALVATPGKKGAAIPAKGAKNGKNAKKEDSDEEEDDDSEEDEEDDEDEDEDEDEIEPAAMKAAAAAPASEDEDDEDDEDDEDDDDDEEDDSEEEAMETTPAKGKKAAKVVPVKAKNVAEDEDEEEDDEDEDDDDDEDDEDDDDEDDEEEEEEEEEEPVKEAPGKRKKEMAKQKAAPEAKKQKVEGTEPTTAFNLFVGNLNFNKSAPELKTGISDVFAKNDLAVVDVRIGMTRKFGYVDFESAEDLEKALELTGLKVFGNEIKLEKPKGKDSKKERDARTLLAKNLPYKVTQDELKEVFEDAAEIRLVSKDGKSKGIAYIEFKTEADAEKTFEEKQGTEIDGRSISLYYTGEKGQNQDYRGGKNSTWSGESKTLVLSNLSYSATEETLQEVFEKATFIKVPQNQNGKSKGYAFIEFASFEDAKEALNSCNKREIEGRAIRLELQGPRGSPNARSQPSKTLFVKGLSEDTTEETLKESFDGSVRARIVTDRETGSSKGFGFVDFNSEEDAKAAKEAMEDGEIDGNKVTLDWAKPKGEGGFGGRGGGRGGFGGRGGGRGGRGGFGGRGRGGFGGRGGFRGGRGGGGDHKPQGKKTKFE

GGTGGTGGTGGNTGTGGTGGTGGNGG [FAN-1224dI] gave a pKd (N = 2'-deoxyinosine at positions 12 and 24 (replacing T)) of 7.49.

Work on GGTGGTGGTGGTNGTGGTGGTGGNGG [FAN-1324dI] yielded a pKd (N = 2'-deoxyinosine at positions 13 and 24 (replacing T)) of 7.51.

GGTGGTGGTGGTTGNGGTGGTGGNGG [FAN-1524dI] was tested, and the pKd (N = 2'-deoxyinosine at positions 15 and 24 (replacing T)) was 7.43.

With GGTGGTGGTGGTTGTGGTGGTGGTGG [AS1411] the pKd was 6.77.
